Where a chain is given by its changes, count along the chain named.
B1: AG10059 (antibody, human IgG4 S228P, kappa, V domains shown)
VH: EVQLVESGGGLVQPGGSLRLSCAASGYSITSGHYWAWIRQAPGKGLEWVSSISGYGSTTYYADSVKGRFTISRDNSKNTLYLQLNSLRAEDTAVYYCARGGSDAVLGDWFAYWGQGTLVTVSS
VL: DIQLTQSPSSLSASVGDRVTITCRASQGIGSFLAWYQQKPGKAPKLLIYDASNLETGVPSRFSGSGSGTDFTLTISSLQPEDFATYYCQQGYYLWTFGQGTKVEIKR
B2: AG10058 (antibody, human IgG4 S228P, kappa, V domains shown)
VH: EVQLVESGGGLVQPGGSLRLSCAASGFSLSTSGVGVGWIRQAPGKGLEWLALIDWDDDKYYSPSLKSRLTISRDNSKNTLYLQLNSLRAEDTAVYYCARGGSDTVLGDWFAYWGQGTLVTVSS
VL: B1 VL with G28S, I29V, G30S, S31P, F32Y, N53S, T56S, Y93S

Key:
[1] = target: T1, rat CD137 on the cell surface (rat, UniProt Q4W8J3 24-258); assay: flow cytometry, HEK293F cells expressing CD137 [Cont.]
T1 sequence: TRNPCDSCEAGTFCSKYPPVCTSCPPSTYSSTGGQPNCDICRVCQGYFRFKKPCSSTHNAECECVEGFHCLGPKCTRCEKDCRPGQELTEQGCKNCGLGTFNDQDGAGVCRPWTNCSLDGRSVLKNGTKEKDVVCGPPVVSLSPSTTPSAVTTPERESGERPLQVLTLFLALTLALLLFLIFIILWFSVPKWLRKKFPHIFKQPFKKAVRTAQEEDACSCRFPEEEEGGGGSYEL
Description: (§1) The affinity of antibodies were also assessed against human, monkey and mouse CD137 that are transiently expressed on the surface of HEK293F cells. Briefly, HEK293F cells were transfected with a plasmid expressing full-length human, monkey or mouse CD137 from a bicistronic IRES vector, EGFP was used to identify the transfected cells. After 48 hrs, the transfected cells were harvested and then washed once with cold FACS buffer (PBS supplemented with 1% BSA). […] The cells were washed once prior to analysis by flow cytometry (Beckman® CytoFlex).

[2] = target: T2, full-length mouse CD137 on the cell surface (mouse, UniProt P20334 24-178); assay: as above
T2 sequence: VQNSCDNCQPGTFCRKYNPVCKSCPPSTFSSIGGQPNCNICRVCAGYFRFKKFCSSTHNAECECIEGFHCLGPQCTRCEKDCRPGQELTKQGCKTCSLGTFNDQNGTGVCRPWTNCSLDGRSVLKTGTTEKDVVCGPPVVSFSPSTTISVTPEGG
Description: as §1

CD95 = target: T3, CD95; assay: flow cytometry, HEK293F cells expressing the receptor, antibody 100 nM [Cont.]
T3 chain: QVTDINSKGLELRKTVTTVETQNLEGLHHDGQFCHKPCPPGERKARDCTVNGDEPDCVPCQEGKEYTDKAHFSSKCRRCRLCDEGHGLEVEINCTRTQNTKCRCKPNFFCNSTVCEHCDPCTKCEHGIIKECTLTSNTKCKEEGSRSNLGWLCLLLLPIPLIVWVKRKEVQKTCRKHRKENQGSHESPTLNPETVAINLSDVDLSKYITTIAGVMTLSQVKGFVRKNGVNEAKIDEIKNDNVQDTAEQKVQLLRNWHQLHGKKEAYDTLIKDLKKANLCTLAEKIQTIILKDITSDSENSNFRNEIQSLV
Description: The selectivity of antibodies for CD137 was evaluated using flow cytometry analysis of their binding ability to members of TNFR superfamily. The TNFRSF receptors including CD137, OX40, CD40, GITR and CD27 were transiently overexpressed on the surface of HEK293F cells. Transfected cells were washed in pre-chilled staining buffer (PBS supplemented with 2% FBS), then incubated with 100 nM test antibodies for 1 hr on ice. […] Samples were washed once with staining buffer prior to analysis by flow cytometry.

[3] = target: T2, full-length mouse CD137 on the cell …; assay: flow cytometry, HEK293F
Description: as §1

Binder | binding result [1] | binding result [2] | Mean (CD95) | Kd [3] [nM]
B1 | no binding (tested: 100 nM (text paragraph 220)) | no binding (tested: 100 nM (text paragraph 220)) | – | –
B2 | – | – | 5370 | 10.1

Source: US20190055314A1 (ADAGENE, published 2019)
